Results: article PMC3210380
Numbering of substitutions follows the chain as printed.

T1: Aptx full-length WT (Schizosaccharomyces pombe, UniProt O74859 1-232)
T1 sequence: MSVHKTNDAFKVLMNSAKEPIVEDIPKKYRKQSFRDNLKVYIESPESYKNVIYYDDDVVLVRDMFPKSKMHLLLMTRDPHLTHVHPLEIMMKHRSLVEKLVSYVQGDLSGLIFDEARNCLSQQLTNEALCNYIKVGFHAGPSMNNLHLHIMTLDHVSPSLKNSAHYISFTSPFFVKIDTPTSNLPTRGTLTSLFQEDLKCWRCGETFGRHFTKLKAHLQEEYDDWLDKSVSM

T2: Aptx F65A (Schizosaccharomyces pombe, UniProt O74859 1-232, F65A)
T2 sequence: T1 sequence with F65A

T3: Aptxcat (HIT-Znf catalytic core) (Schizosaccharomyces pombe, UniProt O74859 30-232)
T3 sequence: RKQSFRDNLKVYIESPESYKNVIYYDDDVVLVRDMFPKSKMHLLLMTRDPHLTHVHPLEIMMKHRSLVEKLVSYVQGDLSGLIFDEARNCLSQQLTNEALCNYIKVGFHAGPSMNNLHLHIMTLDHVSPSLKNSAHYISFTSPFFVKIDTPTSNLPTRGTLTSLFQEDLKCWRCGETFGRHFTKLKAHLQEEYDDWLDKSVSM

B1: SSB 39-mer (1-nt gap, 3'- and 5'-phosphates) (dsDNA)
DNA 1: CCGAGCATGAATAACCTGCACCTGCATATTATGACTCTG
DNA 2: CAGAGTCATAATATGCAGG
DNA 3: GCAGGTTATTCATGCTCGG
modifications: 3'-phosphate on S5; 5'-phosphate on S6
B2: 39-mer dsDNA (dsDNA)
DNA 1: CAGAGTCATAATATGCAGGTGCAGGTTATTCATGCTCGG
DNA 2: B1 DNA 1
B3: Crystallized duplex, strands A and C (dsDNA)
DNA 1: CCCTG
DNA 2: TATCGGAATCAGGG
modifications: 5'-OH and 3'-OH on both strands

Legend:
Aptx full-length WT = target: T1, Aptx full-length WT; test: fluorescence polarization
Aptx F65A = target: T2, Aptx F65A; test: fluorescence polarization
[1] = target: T3, Aptxcat (HIT-Znf catalytic core); test: X-ray crystallography

Row | Binder | Kd (Aptx full-length WT) | Kd (Aptx F65A) | binding result [1]
1 | B1 | 80 nM | 250 nM | –
2 | B2 | 190 nM | – | –
3 | B3 | – | – | binds
4 | CAGAGTCATAATATGCAGGTGCAGGTTATTCATGCTCGG (ssDNA) [39-mer ssDNA] | 330 nM | – | –
